# Results as given in patent US20090226437A1 (Genentech, published 2009).
# Residue numbers refer to the chain shown, from its start.
# B1: Rat Fib504 (antibody FIB504.64 produced by hybridoma ATCC HB-293) (antibody, V domains shown)
# VH: EVQLQESGPGLVKPSQSLSLTCSVTGFFITNNYWGWIRKFPGNKMEWMGYISYSGSTSYNPSLKSRISITRDTSKNQFFLQLNSVTTEDTATYYCAMTGSSGYFDFWGPGTMVTVSS
# VL: DVVMTQSPATLSVTPGERISLSCRASESVDTYLHWYQQKPNESPRLLIKYASQSISGIPSRFSGSGSGTDFTLSINGVELEDLSIYYCQQGNSLPNTFGAGTKLELKR
# notes: Whole rat antibody in the cell adhesion assays; also called rat anti-mouse beta7 antibody
# B2: Variant hu504.16, IgG (antibody, name in Kabat numbering, V domains shown)
# VH: EVQLVESGGGLVQPGGSLRLSCAASGFFITNNYWGWVRQAPGKGLEWVGYISYSGSTSYNPSLKSRFTISRDTSKNTFYLQMNSLRAEDTAVYYCAMTGSSGYFDFWGQGTLVTVSS
# VL: DIQMTQSPSSLSASVGDRVTITCRASESVDTLLHWYQQKPGKAPKLLIKYASQSISGVPSRFSGSGSGTDFTLTISSLQPEDFATYYCQQGNSLPNTFGQGTKVEIKR
# B3: Variant hu504.5, IgG (antibody, name in Kabat numbering, V domains shown)
# VH: B2 VH
# VL: B2 VL with T31S
# B4: Variant hu504.32, IgG (antibody, V domains shown)
# VH: B2 VH
# VL: B2 VL with T31D
# notes: methionine at heavy chain position 94; also called hu504.32M; 504.32M
# Target: T1, human alpha4beta7 receptor on RPMI8866 cells (human, UniProt P13612 34-1032; P26010 20-798)
# T1 construct: whole, on cells; also called alpha4beta7 on RPMI8866
# T1 sequence (P13612 34-1032, chain 1 of 2): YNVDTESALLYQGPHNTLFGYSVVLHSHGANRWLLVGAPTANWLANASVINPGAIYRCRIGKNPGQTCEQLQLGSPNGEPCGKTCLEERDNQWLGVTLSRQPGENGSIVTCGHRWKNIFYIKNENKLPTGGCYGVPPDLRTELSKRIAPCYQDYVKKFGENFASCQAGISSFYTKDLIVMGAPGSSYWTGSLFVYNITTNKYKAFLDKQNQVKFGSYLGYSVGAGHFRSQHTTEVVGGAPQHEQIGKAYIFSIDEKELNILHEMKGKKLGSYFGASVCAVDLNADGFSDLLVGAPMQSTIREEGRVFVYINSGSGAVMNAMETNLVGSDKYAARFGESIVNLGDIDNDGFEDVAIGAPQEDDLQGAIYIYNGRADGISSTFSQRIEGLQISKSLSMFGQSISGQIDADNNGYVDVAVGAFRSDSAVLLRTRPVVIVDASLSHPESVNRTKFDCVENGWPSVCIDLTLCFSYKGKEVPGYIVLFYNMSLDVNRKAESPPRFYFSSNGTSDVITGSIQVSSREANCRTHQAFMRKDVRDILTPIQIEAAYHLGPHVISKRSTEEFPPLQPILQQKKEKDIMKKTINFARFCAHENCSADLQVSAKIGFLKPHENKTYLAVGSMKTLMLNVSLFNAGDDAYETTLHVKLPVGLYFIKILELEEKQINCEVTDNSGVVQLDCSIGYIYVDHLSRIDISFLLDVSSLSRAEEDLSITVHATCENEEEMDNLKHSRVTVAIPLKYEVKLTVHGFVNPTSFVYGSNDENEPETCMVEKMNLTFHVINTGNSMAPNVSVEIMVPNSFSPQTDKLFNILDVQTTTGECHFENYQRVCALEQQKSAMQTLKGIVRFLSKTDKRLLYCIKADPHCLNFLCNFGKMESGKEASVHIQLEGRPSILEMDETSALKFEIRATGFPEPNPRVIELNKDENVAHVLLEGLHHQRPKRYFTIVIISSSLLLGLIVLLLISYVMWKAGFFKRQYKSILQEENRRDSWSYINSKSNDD
# T1 sequence (P26010 20-798, chain 2 of 2): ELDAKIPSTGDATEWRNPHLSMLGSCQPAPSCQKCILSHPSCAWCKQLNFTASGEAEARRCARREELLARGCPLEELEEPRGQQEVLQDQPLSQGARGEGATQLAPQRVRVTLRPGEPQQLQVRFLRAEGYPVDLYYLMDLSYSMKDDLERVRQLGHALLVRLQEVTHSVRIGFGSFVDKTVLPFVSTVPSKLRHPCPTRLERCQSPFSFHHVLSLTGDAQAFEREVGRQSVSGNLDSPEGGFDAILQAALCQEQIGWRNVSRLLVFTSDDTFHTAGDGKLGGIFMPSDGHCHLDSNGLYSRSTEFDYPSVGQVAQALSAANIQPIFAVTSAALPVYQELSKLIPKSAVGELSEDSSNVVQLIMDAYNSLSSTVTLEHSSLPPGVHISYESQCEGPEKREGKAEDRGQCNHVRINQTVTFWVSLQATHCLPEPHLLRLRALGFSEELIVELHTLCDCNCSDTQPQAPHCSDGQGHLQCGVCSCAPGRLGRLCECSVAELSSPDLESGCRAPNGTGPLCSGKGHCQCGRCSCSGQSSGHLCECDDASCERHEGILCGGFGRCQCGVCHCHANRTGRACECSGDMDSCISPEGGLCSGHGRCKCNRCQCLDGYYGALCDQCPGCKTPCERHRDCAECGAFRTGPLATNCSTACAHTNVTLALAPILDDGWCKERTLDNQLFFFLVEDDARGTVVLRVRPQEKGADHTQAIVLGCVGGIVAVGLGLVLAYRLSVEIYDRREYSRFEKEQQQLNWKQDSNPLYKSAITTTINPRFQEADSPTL
# Experiment: cell adhesion inhibition, RPMI8866 cells on coated 7dVCAM-1, Exp 1
# Protocol: (§1) RPMI8866/MAdCAM-1-Ig Cell Adhesion: RPMI8866 cells express alpha4beta7 on their surface (Roswell Park Memorial Institute, Buffalo, N.Y.). Humanized Fib504 variants (hu504 variants) were contacted with a mixture of RMPI8866 cells and MAdCAM fused to IgG coated on a solid support. […] After blocking the plates with 200 ul/well of 5 mg/ml BSA for one hour at room temperature, 50 μl of humanized Fib504 variants in assay media (RPMI 1640 media, Hyclone®, Logan Utah, USA, supplemented with 5 mg/mL BSA) were added to each well and 150,000 BCECF-labeled cells (BCECF, Molecular Probes, Eugene, Oreg.) in 50 μl of assay media were added to each well and incubated for 15 minutes at 37° C. The wells were washed two times with 150 μl of assay media to remove unbound cells. The bound cells were solubilized with 100 μl of 0.1% SDS in 50 mM Tris/HCl pH7.5. The amount of fluorescence released from lysed cells was measured by SPECTRAmax GEMINI™ (Molecular Devices, Sunnyvale, Calif.) at 485 nm excitation 530 nm emission wavelengths. The fluorescence values were analyzed as a function of the concentrations of the humanized Fib504 variants added in each assay, using a four-parameter nonlinear least squares fit, to obtain the IC₅₀ values of each humanized Fib504 variant in the assay. IC₅₀ and IC₉₀ values were estimated from the four-parameter fit. FIG. 14 is an exemplary plot of the results. The IC₉₀ and IC₅₀ values for each of the variants tested are shown below in Table 4.
# (§2) RPMI8866/7dVCAM-1 Cell Adhesion: The RPMI8866/7dVCAM-1 assay is similar format to the RPMI8866/MAdCAM-1-Ig except that 7dVCAM-1 (ADP5, R&D Systems, Minneapolis, Minn.) was used at 2 ug/ml to coat plates. The results were analyzed as described above for the MAdCAM binding experiments. The IC₅₀ values for each of the variants tested are shown below in Table 5.
Binder,IC50 [nM],IC90 [nM]
B1,0.107,0.396
B2,0.098,0.261
B3,0.088,0.396

# Target: T1, human alpha4beta7 receptor on RPMI8866 …
# Experiment: cell adhesion inhibition, RPMI8866 cells on coated 7dVCAM-1, Exp 2
# Protocol: as §1, §2
Binder,IC50 [nM],IC90 [nM]
B1,0.193,0.58
B2,0.223,0.774
B3,0.27,0.726

# Target: T1, human alpha4beta7 receptor on RPMI8866 …
# Experiment: cell adhesion inhibition, RPMI8866 cells on coated MAdCAM-1-Ig, Exp 1
# Protocol: as §1
Binder,IC50 [nM],IC90 [nM]
B1,0.098,0.483
B2,0.0768,0.244
B3,0.067,0.361

# Target: T1, human alpha4beta7 receptor on RPMI8866 …
# Experiment: cell adhesion inhibition, RPMI8866 cells on coated MAdCAM-1-Ig, Exp 2
# Protocol: as §1
Binder,IC50 [nM],IC90 [nM]
B1,0.197,0.703
B2,0.206,0.551
B3,0.248,0.88

# Target: T2, alpha4beta7 on 38C13 alpha4+ murine lymphoma cells transfected with integrin beta7 (38C13beta7 cells) (murine, UniProt Q00651 41-1039; P26011 20-806)
# T2 construct: whole, on cells; also called 38C13-beta7 expressing cells; murine beta7-containing receptor
# T2 sequence (Q00651 41-1039, chain 1 of 2): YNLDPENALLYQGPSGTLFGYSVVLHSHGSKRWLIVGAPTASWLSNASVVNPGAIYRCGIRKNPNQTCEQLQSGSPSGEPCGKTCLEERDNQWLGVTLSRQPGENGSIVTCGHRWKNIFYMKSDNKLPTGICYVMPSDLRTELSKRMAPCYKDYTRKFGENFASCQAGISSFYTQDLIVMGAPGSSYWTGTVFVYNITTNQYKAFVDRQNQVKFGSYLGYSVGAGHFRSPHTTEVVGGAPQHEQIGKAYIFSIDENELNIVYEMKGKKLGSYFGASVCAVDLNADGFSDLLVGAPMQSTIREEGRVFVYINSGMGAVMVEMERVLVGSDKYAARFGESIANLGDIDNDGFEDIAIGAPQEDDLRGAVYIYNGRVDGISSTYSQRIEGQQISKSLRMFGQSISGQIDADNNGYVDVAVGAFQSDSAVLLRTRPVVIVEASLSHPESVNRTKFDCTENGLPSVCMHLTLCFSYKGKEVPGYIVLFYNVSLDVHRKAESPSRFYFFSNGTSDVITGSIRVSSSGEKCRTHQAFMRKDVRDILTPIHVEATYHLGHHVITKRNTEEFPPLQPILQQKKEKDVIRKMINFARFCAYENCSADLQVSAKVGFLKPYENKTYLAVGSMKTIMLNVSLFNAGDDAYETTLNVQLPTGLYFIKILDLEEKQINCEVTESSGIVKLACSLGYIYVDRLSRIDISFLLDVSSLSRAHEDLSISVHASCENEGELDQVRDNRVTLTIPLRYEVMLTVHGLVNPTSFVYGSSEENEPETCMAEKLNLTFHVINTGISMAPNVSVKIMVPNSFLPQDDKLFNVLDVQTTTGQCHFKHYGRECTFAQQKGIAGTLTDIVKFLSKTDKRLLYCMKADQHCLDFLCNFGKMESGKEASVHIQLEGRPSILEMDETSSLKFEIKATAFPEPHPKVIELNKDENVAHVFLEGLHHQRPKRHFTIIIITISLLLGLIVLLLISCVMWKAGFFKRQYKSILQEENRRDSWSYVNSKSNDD
# T2 sequence (P26011 20-806, chain 2 of 2): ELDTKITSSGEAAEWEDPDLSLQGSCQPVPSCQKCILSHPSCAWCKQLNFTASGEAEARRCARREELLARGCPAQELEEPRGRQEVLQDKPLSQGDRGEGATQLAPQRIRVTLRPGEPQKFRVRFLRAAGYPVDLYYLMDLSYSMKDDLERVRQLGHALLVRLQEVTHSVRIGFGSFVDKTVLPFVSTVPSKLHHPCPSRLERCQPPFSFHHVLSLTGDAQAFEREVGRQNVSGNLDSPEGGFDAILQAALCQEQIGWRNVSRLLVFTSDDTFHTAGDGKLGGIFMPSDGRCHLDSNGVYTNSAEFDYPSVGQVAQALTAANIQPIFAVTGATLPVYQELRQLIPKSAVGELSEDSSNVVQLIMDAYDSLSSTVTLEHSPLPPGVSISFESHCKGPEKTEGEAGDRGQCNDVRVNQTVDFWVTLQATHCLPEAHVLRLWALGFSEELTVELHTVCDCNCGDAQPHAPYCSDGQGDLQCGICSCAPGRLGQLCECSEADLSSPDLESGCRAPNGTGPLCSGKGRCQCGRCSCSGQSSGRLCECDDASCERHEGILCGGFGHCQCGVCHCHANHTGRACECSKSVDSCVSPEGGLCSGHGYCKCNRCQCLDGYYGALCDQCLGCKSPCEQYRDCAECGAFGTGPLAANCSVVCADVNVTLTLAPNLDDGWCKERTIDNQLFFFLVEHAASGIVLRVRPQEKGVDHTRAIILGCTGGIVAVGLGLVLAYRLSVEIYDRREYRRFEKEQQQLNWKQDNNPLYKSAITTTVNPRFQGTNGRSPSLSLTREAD
# Experiment: cell adhesion inhibition, 38C13beta7 cells on coated muVCAM-1-Ig, experiment 1 of 2
# Protocol: as §1
# (§3) 38C13beta7/muVCAM-1-Ig Cell Adhesion Assay: The 38C13beta7/muVCAM-1-Ig assay was performed according to the murine MAdCAM-1-Ig/RPMI8866 cell binding assay above, except that muVCAM-1-Ig (Genentech, Inc.) was used at 2 μg/ml to coat plates. (IC₅₀ and IC₉₀ values for 2 experiments are shown).
Binder,IC50 [nM],IC90 [nM]
B1,0.845,2.9
B4,0.562,2
B2,0.835,2.86
B3,0.763,3.07

# Target: T2, alpha4beta7 on 38C13 alpha4+ murine …
# Experiment: cell adhesion inhibition, 38C13beta7 cells on coated muVCAM-1-Ig, experiment 2 of 2
# Protocol: as §1, §3
Binder,IC50 [nM],IC90 [nM]
B1,0.447,2.3
B4,0.33,1.84
B2,0.584,1.84
B3,0.407,2.3

# Target: T2, alpha4beta7 on 38C13 alpha4+ murine …
# Experiment: cell adhesion inhibition, 38C13beta7 cells on coated muMAdCAM-1-Ig, experiment 1 of 2
# Protocol: as §1
# (§4) 38C13beta7/muMAdCAM-1-Ig Cell Adhesion Assay: The 38C13beta7/muMAdCAM-1-Ig assay was similar format to the RPMI8866/MAdCAM-1-Ig except that muMAdCAM-1-Ig (Genentech, Inc.) was used at 2 μg/ml to coat plates. 38C13 alpha4+ murine lymphoma cells (Crowe, D. T. et al., J. Biol. Chem. 269:14411-14418 (1994)) were transfected with DNA encoding integrin beta7 such that alpha4beta7 was expressed on the cell surface. The ability of the antibodies variants to disrupt interaction between the cell membrane associated alpha4beta7 and MAdCAM was performed as above.
Binder,IC50 [nM],IC90 [nM]
B1,0.682,2.87
B4,0.718,4.08
B2,0.998,3.72
B3,0.859,2.32

# Target: T2, alpha4beta7 on 38C13 alpha4+ murine …
# Experiment: cell adhesion inhibition, 38C13beta7 cells on coated muMAdCAM-1-Ig, experiment 2 of 2
# Protocol: as §1, §4
Binder,IC50 [nM],IC90 [nM]
B1,0.306,1.51
B4,0.458,1.51
B2,0.61,4.08
B3,0.466,2.61

# Target: T3, alphaEbeta7 on alphaEbeta7-transfected 293 cells (human, UniProt P38570 19-1179; P26010 20-798)
# T3 construct: whole, on cells; also called alphaEbeta7 293 cells
# T3 sequence (P38570 19-1179, chain 1 of 2): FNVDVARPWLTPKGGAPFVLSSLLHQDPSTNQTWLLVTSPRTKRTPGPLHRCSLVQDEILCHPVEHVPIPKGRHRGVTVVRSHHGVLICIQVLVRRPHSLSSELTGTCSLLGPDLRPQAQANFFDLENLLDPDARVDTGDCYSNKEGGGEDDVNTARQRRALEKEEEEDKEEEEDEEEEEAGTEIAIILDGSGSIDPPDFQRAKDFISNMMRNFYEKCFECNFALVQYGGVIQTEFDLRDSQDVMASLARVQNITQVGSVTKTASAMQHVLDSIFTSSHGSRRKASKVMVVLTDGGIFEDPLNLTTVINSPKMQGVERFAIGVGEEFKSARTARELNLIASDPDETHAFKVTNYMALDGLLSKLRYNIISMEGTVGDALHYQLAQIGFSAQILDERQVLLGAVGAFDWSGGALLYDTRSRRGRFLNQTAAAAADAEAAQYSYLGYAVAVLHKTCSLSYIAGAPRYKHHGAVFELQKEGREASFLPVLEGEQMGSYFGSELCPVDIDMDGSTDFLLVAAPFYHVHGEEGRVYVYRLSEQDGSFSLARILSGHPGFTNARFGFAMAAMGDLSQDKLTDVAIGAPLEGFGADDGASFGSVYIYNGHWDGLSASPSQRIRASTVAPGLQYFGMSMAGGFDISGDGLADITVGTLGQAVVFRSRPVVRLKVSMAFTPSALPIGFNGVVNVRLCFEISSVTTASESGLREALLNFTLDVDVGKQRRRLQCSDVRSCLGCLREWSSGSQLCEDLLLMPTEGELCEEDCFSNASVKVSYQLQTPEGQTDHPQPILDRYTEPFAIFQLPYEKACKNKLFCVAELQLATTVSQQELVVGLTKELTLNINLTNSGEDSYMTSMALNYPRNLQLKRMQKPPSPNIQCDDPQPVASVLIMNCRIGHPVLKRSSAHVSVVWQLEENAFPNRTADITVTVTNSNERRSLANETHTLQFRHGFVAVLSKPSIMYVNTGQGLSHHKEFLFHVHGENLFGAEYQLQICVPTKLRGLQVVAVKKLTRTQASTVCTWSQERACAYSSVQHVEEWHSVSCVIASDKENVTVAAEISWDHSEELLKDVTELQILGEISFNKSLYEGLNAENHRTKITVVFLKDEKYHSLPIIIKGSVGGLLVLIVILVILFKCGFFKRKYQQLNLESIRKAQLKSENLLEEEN
# T3 sequence (P26010 20-798, chain 2 of 2): as the sequence (P26010 20-798, chain 2 of 2) above
# Experiment: cell adhesion inhibition, alphaEbeta7 293 cells on coated huE-Cadherin, experiment 1 of 3
# Protocol: (§5) After blocking the plates with 200 ul/well of 5 mg/ml BSA for one hour at room temperature, 50 μl of humanized Fib504 variants in assay media (RPMI 1640 media, Hyclone®, Logan Utah, USA, supplemented with 5 mg/mL BSA) were added to each well and 150,000 BCECF-labeled cells (BCECF, Molecular Probes, Eugene, Oreg.) in 50 μl of assay media were added to each well and incubated for 15 minutes at 37° C. The wells were washed two times with 150 μl of assay media to remove unbound cells. The bound cells were solubilized with 100 μl of 0.1% SDS in 50 mM Tris/HCl pH7.5. The amount of fluorescence released from lysed cells was measured by SPECTRAmax GEMINI™ (Molecular Devices, Sunnyvale, Calif.) at 485 nm excitation 530 nm emission wavelengths. The fluorescence values were analyzed as a function of the concentrations of the humanized Fib504 variants added in each assay, using a four-parameter nonlinear least squares fit, to obtain the IC₅₀ values of each humanized Fib504 variant in the assay. IC₅₀ and IC₉₀ values were estimated from the four-parameter fit. FIG. 14 is an exemplary plot of the results. The IC₉₀ and IC₅₀ values for each of the variants tested are shown below in Table 4.
# (§6) The assay format is similar to the RPMI8866/MAdCAM-1-Ig assay except that the huE-Cadherin (648-EC, R&D Systems, Minneapolis, Minn.) was used at 2 μg/ml to coat the plates. Plates were then blocked with 5 mg/ml BSA as mentioned above and 50 μl of FIB504 variants in assay media (F-12:DMEM (50:50) supplemented with 5 mg/ml BSA) were add to each well and 110,000 BCECF labeled cells in 50 ul of assay media were added to each well and incubated for 15 minutes at 37° C. The wells were washed two times with 150 μl of assay media and the amount of fluorescence released by lysed cells was measured and analyzed as described above.
Binder,IC50 [nM],IC90 [nM]
B1,2.05,8.8
B4,1.81,8.8
B2,1.96,7.03
B3,2.13,7.99

# Target: T3, alphaEbeta7 on alphaEbeta7-transfected …
# Experiment: cell adhesion inhibition, alphaEbeta7 293 cells on coated huE-Cadherin, experiment 2 of 3
# Protocol: as §5, §6
Binder,IC50 [nM],IC90 [nM]
B1,7.89,24.5
B4,6.99,24.5
B2,10.1,33.7
B3,10.2,28.7

# Target: T3, alphaEbeta7 on alphaEbeta7-transfected …
# Experiment: cell adhesion inhibition, alphaEbeta7 293 cells on coated huE-Cadherin, experiment 3 of 3
# Protocol: as §5, §6
Binder,IC50 [nM],IC90 [nM]
B1,4.19,9.95
B4,3.47,11.7
B2,4.58,13.5
B3,4.77,10.2
